According to article PMC7553327, “The vimentin rod domain blocks P-selectin-P-selectin glycoprotein ligand 1 interactions to attenuate leukocyte adhesion to inflamed endothelium” (PLoS ONE, 2020):

T1: P-selectin/Fc (human, UniProt P16109 42-771)
T1 construct: P-selectin; Labelled with IR800CW dye for the SPOT-Vim array; No catalogue number printed; also called P-sel/Fc; P-sel/Fc-IR800; source: bought: R & D Systems
T1 sequence (looked up): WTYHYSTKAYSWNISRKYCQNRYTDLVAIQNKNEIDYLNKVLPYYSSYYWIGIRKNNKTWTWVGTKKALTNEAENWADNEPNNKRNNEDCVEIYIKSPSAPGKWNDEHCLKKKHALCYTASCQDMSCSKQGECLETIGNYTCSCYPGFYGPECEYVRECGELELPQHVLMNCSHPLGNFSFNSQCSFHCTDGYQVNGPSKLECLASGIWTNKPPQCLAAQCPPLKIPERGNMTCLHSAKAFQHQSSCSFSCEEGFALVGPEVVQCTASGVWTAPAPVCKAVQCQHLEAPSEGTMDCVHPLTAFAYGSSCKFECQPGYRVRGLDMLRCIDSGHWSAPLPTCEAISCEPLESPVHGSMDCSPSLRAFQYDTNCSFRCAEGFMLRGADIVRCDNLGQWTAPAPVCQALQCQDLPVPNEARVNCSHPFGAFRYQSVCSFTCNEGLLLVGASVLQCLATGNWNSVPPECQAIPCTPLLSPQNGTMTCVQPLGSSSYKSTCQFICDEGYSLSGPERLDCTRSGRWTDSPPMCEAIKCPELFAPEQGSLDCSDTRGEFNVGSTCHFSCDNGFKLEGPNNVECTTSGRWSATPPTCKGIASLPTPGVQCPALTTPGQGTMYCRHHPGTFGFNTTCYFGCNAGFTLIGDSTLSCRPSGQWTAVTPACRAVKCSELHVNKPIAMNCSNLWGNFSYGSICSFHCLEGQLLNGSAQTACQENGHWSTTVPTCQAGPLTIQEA


Tests used:
P-selectin/Fc [1] = target: T1, P-selectin/Fc; experiment: BLI; P-sel/Fc immobilised on AR2G sensors; PSGL-1/Fc (Sino Biological) as analyte, 0–1,000 nM; DPBS; in duplicate; settings: both partners purified
[2] = target: the molecule itself; experiment: SDS-PAGE in non-reducing and reducing conditions, Coomassie stain; purified protein; non-reduced against reduced
P-selectin/Fc [3] = target: T1, P-selectin/Fc; experiment: BLI; blocking: P-sel/Fc on AR2G sensors placed into rhRod 0–1,000 nM (association, then dissociation in DPBS), then into 500 nM PSGL-1/Fc (Sino Biological); PSGL-1/Fc response against rhRod concentration, non-linear regression; in duplicate; settings: both partners purified
P-selectin/Fc [4] = target: T1, P-selectin/Fc; experiment: BLI; P-sel/Fc or PSGL-1/Fc (10 μg/mL) immobilised on anti-human IgG Fc (AHC) sensors; rhVim or rhRod as analyte, 0–1,000 nM; DPBS; steady state analysis; settings: both partners purified
P-selectin/Fc [5] = target: T1, P-selectin/Fc; experiment: BLI; separate set of experiments: room temperature aliquot of rhRod (1,000 nM) on immobilized P-sel/Fc, performed as above; DPBS; settings: both partners purified
P-selectin/Fc [6] = target: T1, P-selectin/Fc; experiment: BLI; rhVim or rhRod (50 μg/mL) immobilised by amine coupling on AR2G sensors; P-sel/Fc or PSGL-1/Fc as analyte, 0–1,000 nM; DPBS; steady state analysis; settings: both partners purified

Kd (P-selectin/Fc [1]) | IC50 (P-selectin/Fc [3]) | Kd (P-selectin/Fc [4]) | Kd (P-selectin/Fc [5]) | Kd (P-selectin/Fc [6]) | Binder | binding result [2]
240 ± 67 nM |  |  |  |  | recombinant human PSGL-1/Fc (Sino Biological Inc.) (Fc fusion, UniProt Q14242 42-320, looked up, P-selectin glycoprotein ligand-1, human; No catalogue number printed; source: bought: Sino Biological Inc) QATEYEYLDYDFLPETEPPEMLRNSTDTTPLTGPGTPESTTVEPAARRSTGLDAGGAVTELTTELANMGNLSTDSAAMEIQTTQPAATEAQTTQPVPTEAQTTPLAATEAQTTRLTATEAQTTPLAATEAQTTPPAATEAQTTQPTGLEAQTTAPAAMEAQTTAPAAMEAQTTPPAAMEAQTTQTTAMEAQTTAPEATEAQTTQPTATEAQTTPLAAMEALSTEPSATEALSMEPTTKRGLFIPFSVSSVTHKGIPMAASNLSVNYPVGAPDHISVKQC | 
 | 20 nM | 10 ± 0.6 nM | 280 ± 61 nM | 41 ± 6 nM | recombinant human rod domain of vimentin (domain or fragment, vimentin, human, rod domain, aa residues 96-407 (base pairs 717-1,652 of NM_00380.3 as printed); 38.2 kDa used for concentration; Labelled with IR800CW dye for the SPOT-Psel array; Dimerized in non-reducing SDS-PAGE. ΔrhRod is the same protein after 10 minutes in boiling water; also called rhRod; rod domain of recombinant vimentin) not shown | binds
